{"source": "paper PMC5856776", "about": "(2018)", "binders": {"B1": {"name": "full-length recombinant Cnm (rCnm-FL) (domain or fragment)", "chain": "ASDVSNNVSSLTVSPTQINDGGKTTVRFEFDEHAQNIKAGDTITVNWQNSGTVRGTGYTKTIKLEVQGKYVGDLVVTQDKAVVTFNDSITGLQNITGWGEFEIEGRNFTDTTTGNTGSFQVTSGGKTSEVTVVKSASGTTGVFYYKTGDMQTDDTNHVRWFLNINNENAYVDSDIRIEDDIQSGQTLDIDSFDITVNGSESYRGQEGINQLAQRYGATISADSASGHISVYIPQGYASLNSFSIMYLTKVDNPDQKTFENNSKAWYKENGKDAVDGKEFNHSVANVNAAGGVDGRTTTTTEKPTTTTEAPTTTEAPTTTEAPTTTETPTTTEAPTTTEAPTTTEAPTTTEAPTTTETPTTTEAPTTTEAPTTTEAPTTTEAPTTTEAPTTTEAPTTTEAPTTTEASSETTKAEEKTTEVKEPEKTTTTAPAGKT"}, "B2": {"name": "rCnm N2 (domain or fragment)", "chain": "ASGTTGVFYYKTGDMQTDDTNHVRWFLNINNENAYVDSDIRIEDDIQSGQTLDIDSFDITVNGSESYRGQEGINQLAQRYGATISADSASGHISVYIPQGYASLNSFSIMYLTKVDNPDQKTFENNSKAWYKENGKDAVDGKEFNHSVANVNAAGGVDGR"}, "B3": {"name": "rCnm N1+2 (domain or fragment)", "chain": "SDVSNNVSSLTVSPTQINDGGKTTVRFEFDEHAQNIKAGDTITVNWQNSGTVRGTGYTKTIKLEVQGKYVGDLVVTQDKAVVTFNDSITGLQNITGWGEFEIEGRNFTDTTTGNTGSFQVTSGGKTSEVTVVKSASGTTGVFYYKTGDMQTDDTNHVRWFLNINNENAYVDSDIRIEDDIQSGQTLDIDSFDITVNGSESYRGQEGINQLAQRYGATISADSASGHISVYIPQGYASLNSFSIMYLTKVDNPDQKTFENNSKAWYKENGKDAVDGKEFNHSVANVNAAGGVDGR"}}, "assay_in_all_cases": "SPR", "key": {"[1]": {"target": "T1, type I collagen (BD-Biosciences) (UniProt P02454 152-1207; P02466 86-1125)", "T1 sequence (P02454 152-1207, chain 1 of 2)": "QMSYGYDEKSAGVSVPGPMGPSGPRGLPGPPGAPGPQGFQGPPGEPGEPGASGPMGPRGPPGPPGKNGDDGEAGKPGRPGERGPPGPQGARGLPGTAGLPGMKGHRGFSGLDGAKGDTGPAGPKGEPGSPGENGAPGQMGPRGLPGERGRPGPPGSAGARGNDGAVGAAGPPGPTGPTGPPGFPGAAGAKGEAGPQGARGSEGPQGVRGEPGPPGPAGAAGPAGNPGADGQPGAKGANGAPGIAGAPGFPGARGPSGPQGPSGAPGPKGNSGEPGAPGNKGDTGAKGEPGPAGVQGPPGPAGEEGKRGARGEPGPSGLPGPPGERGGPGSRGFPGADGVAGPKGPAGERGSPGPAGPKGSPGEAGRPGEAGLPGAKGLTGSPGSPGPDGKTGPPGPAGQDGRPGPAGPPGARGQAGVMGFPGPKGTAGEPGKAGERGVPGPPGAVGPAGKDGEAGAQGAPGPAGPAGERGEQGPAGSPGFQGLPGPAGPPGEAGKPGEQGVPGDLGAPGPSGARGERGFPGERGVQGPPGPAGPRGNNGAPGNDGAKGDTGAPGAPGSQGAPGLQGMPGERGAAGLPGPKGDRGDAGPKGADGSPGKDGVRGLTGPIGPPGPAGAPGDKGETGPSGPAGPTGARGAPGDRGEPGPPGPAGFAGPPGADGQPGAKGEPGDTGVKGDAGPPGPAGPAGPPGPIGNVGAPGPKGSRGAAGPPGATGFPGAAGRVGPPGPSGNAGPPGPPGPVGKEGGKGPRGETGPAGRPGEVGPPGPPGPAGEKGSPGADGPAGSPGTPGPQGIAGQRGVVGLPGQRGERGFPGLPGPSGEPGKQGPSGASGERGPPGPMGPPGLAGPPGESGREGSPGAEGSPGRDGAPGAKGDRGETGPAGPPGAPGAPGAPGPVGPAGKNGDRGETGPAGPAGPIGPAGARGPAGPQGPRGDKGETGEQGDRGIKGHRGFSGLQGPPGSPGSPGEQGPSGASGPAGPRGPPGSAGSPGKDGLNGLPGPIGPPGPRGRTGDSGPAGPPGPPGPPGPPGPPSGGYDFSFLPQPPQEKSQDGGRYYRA", "T1 sequence (P02466 86-1125, chain 2 of 2)": "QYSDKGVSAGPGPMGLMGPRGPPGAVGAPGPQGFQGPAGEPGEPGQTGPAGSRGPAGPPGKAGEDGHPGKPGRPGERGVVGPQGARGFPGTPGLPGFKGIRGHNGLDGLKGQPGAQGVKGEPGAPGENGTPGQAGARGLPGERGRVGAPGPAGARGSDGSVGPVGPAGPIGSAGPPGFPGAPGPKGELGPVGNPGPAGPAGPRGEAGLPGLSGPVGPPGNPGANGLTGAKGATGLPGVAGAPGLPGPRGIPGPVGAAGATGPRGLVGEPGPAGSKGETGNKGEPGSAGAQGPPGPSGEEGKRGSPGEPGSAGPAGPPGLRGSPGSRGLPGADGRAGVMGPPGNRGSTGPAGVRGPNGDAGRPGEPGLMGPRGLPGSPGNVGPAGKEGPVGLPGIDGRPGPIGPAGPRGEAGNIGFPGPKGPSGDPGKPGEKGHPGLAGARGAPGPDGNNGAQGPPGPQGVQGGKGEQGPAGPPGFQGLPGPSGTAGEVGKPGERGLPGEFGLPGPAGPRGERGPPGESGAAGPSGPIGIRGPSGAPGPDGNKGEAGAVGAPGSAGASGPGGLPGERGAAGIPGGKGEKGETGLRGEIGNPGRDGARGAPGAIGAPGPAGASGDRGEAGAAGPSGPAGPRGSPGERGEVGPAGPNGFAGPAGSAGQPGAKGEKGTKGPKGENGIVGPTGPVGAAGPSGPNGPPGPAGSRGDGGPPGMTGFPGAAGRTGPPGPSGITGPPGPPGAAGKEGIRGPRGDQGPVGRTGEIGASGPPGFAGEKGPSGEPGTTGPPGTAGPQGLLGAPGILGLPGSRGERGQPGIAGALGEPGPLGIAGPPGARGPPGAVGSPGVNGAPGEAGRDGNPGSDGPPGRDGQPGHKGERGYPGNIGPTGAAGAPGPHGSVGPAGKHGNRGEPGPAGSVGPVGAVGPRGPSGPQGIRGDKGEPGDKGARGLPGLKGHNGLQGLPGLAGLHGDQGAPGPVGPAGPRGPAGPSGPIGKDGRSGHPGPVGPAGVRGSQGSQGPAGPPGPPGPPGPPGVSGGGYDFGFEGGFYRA"}, "[2]": {"target": "T1, type I collagen (BD-Biosciences)", "remark": "listed apart in the source"}, "[3]": {"target": "T1, type I collagen (BD-Biosciences)", "remark": "listed apart in the source"}}}
{"binder": "B1", "values": [{"measurement": "koff", "setting": "[1]", "value": 0.00198, "unit": "s⁻¹"}, {"measurement": "Ka", "setting": "[2]", "value": "3.46e+06", "unit": "M⁻¹"}, {"measurement": "Kd", "setting": "[3]", "value": 0.289, "unit": "µM"}]}
{"binder": "B2", "values": [{"measurement": "koff", "setting": "[1]", "value": 0.000335, "unit": "s⁻¹"}, {"measurement": "Ka", "setting": "[2]", "value": 221000, "unit": "M⁻¹"}, {"measurement": "Kd", "setting": "[3]", "value": 4.53, "unit": "µM"}]}
{"binder": "B3", "values": [{"measurement": "koff", "setting": "[1]", "value": 0.0244, "unit": "s⁻¹"}, {"measurement": "Ka", "setting": "[2]", "value": "1.22e+06", "unit": "M⁻¹"}, {"measurement": "Kd", "setting": "[3]", "value": 0.817, "unit": "µM"}]}
